Results reported in US20120165211A1, “Human Antibodies Cross-Reacting With A Bacterial And A Self Antigen From Atherosclerotic Plaques” (priority 2007, published 2012).

Columns and labels:
[1] = biological target: T1, recombinant transgelin (rTAGLN-Origene cod: TP302448) (human, UniProt Q01995 1-201); experiment: western blot on human transgelin (referred back to)
T1 construct: also called commercial transgelin 1; human transgelin

[2] = biological target: T2, transgelin 1 (SM22) from coronary plaque lysate (human, UniProt Q01995 2-201); experiment: 2D electrophoresis western blot of coronary plaque lysate with 7816FLAG, spots identified by MALDI-ToF
T2 construct: also called TAGLN; spots C1 and C2
T2 sequence (Q01995 2-201 limits assumed): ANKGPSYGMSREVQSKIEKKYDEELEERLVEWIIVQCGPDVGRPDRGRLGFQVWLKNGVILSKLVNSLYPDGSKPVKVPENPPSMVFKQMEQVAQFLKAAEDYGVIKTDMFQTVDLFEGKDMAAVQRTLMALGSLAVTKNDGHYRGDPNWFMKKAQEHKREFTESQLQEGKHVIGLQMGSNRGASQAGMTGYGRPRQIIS

[3] = biological target: T1, recombinant transgelin (rTAGLN-Origene …); experiment: western blot on recombinant transgelin
[4] = biological target: T3, recombinant transgelin (rTAGLN) (Homo sapiens, UniProt Q01995); format: binding; details: 4-500 ng rTAGLN per well
T3 construct: purchased Origene TP302448
T3 sequence (Q01995 whole entry): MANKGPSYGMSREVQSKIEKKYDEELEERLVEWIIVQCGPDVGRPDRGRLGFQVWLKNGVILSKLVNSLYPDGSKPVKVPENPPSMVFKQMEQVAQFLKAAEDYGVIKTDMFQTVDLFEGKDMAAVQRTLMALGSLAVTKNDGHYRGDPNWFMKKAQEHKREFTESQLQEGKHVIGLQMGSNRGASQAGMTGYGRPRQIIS

ompK36 = biological target: T4, ompK36 (Klebsiella pneumoniae, UniProt Q48473); experiment: ELISA of 7816 IgG against coated ompK36; format: binding; details: full IgG1, 9 μg/ml; 8 μg OmpK36 coated; read at 450 nm
T4 construct: 6xHis (N); made in house; host or cells: E. coli BL21 (DE3), pET28b
Procedure: 8 μg of OmpK36 was coated on a 96 well ELISA plate in PBS, pH 5.0, overnight at 4° C. The day after, after three washes with PBS, the plate was blocked with PBS/BSA 1%, and purified 7816IgGs were added (9 μg/ml) to each well. After washing three timed with PBS/tween-20 0.1%, an anti-Human Fc antibody-HRP (SIGMA-Aldrich—diluted 1:8000), was added and incubated for 45-60 min. at 37° C. After five washes with PBS/Tween-20 0.1% 40 μL of TMB solution (Pierce) in every well was added and incubated for 15 min. at 37° C. After addition of 40 μl of Stop Solution (H2SO4 0.1 M) in every well the plates were read at 450 nm.

purified OmpK36 = biological target: T5, purified OmpK36 (Klebsiella pneumoniae, UniProt Q48473); experiment: Western blot of purified OmpK36 with recombinant Fabs; format: binding; details: 400 ng OmpK36His per lane; Fabs at 10 μg/L; blocking PBS/BSA10%
T5 construct: made in house; host or cells: E. coli BL21 (DE3), pET28b (BamHI/XhoI cloning)
Procedure: 400 ng of purified OmpK36His was loaded on polyacrylamide gel (all lanes) and SDS-PAGE was performed. Proteins were blotted on PVDF membrane for 2 h at 350 mA. After blocking with PBS/BSA10% the membrane was cut to single lanes and each lane was incubated for 1 h with Fabs at 10 μg/L. After three washes membrane was incubated with anti-Human Light Chain K antibody (Sigma).

T1 sequence (Q01995 whole entry): as above

B1: Fab 1630 (Fab, V domains shown)
VH: GGGLVKPGGSLRLSCTASGFTFSNGWMSWVRQAPGKGLEWVGRIRSNPDGGTTDYAAPFKGRFTISRDDSKNTLFLQVTSLKTEDTGVYYCITDRGDWKWGVPRDLTYWGQGTLVTVSS
VL: MAELTQSPDTLSLSPGERATLSCRASQSVDSNYLAWFQQKPGQAPRLLIYGAYSRATGIPDRFSGSGSGTDFTLTISRLEPEDFVVYYCQQYLSPPITFGQGTRLETKR
B1: binds [1].

B2: Fab 7816 (Fab, V domains shown)
VH: LESGPGQVKPSQTLSLTCTVSGGSIGSGSYSWNWIRQPAGRGLEWIGRISDSGNTNFNPSLKSRVTMSVDTSKNQFALKLTSVTAADTATYFCARGRGILTGLFDYWGQGSLVSVSS
VL: SPDSLAVSPGGRATIKCASSQSVLDNSNHKNSLAWYQQKPGLPPKLLIYWASTRYSGVPDRFSGSGSGTDFTLTINNLQAADVAVYFCQQYYSTPWTFGQGTKVE
notes: also called Fab E7816
B2: binds [1].

B3: 7816Fab-FLAG (Fab, V domains shown)
VH: B2 VH
VL: B2 VL
B3: binds [2].

B4: IgG7816 (antibody, V domains shown)
VH: B2 VH
VL: B2 VL
B4: binds [3].

B5: IgG7816: heavy and light chains of Fab 7816 cloned in pAc-k-Fc vector, expressed as IgG in Sf9 insect cells (antibody, V domains shown)
VH: LESGPGQVKPSQTLSLTCTVSGGSIGSGSYSWNWIRQPAGRGLEWIGRISDSGNTNFNPSLKSRVTMSVDTSKNQFALKLTSVTAADTATYFCARGRGILTGLFDYWGQGSLVSVSSASTKGPSVFPLAPSSKSTSGGTAALGCLVKD
VL: B2 VL
B5 was tested, and the “binding to human transgelin in Western blot” value [4] was “positive band is visible” and the “binding to ompK36 in ELISA” value (ompK36) was “binds specifically to ompK36”.

B6: Fab1630: human recombinant Fab from plaque 12 library (ID12LIB); HC SEQ ID NO:10, LC SEQ ID NO:12 (antibody, listed as Homo sapiens)
heavy: GGGLVKPGGSLRLSCTASGFTFSNGWMSWVRQAPGKGLEWVGRIRSNPDGGTTDYAAPFKGRFTISRDDSKNTLFLQVTSLKTEDTGVYYCITDRGDWKWGVPRDLTYWGQGTLVTVSSASTKGPSVFPLAPSSKSTSGGTAALGCLVKDYFPEPVTV
light: AMAELTQSPDTLSLSPGERATLSCRASQSVDSNYLAWFQQKPGQAPRLLIYGAYSRATGIPDRFSGSGSGTDFTLTISRLEPEDFVVYYCQQYLSPPITFGQGTRLETKRTVAAPSVFIFPPSD
B6 was tested, and the “reactivity with purified OmpK36 in western-blot” value (purified OmpK36) was “react with purified OmpK36” and the “binding to human transgelin in Western blot” value [4] was “recognize human transgelin”.

B7: Fab 248: human recombinant Fab; heavy chain SEQ ID NO:14, light chain SEQ ID NO:16 (antibody, listed as Homo sapiens)
heavy: LESGGGLVKPGGSLRLSCAASGFTFSDYYMSWIRQAPGKGLEFISYISSGGDTIHHADSVKGRFTISRDNAKKSLYLQMNSLRVEDTAVYYCACRGVWGQGT
light: SPATVSVSPGERATLSCRASQSISFHLAWYQQKPGQAPSLLIYGTSTRATGIPARFSGSGSGTEFTLTISSLQSEDSAVYYCQQYHNWPPLTFGGGT
With B7 the “reactivity with purified OmpK36 in western-blot” value (purified OmpK36) was “react with purified OmpK36”.
